Results reported in patent US5618696A, “Human kunitz-type protease inhibitor and variants thereof” (Novo Nordisk A/S, priority 1992, dated 1997).
Changes are numbered by the printed parent chain. Names and notes keep the numbering of the source. Where no end group is shown, it is not given here.

Experiments:
[1] = Net charge of the inhibitor; type: physicochemical
[2] = biological target: T1, Human neutrophil cathepsin G (Homo sapiens, UniProt P08311); assay: Inhibition of cathepsin G by HKIB9 variants; type: biochemical; conditions: at 1 μM
T1 construct: Human neutrophil cathepsin G and elastase were purified from extracts of PMNs; from tissue; host or cells: human polymorphonuclear leukocytes (PMNs), method of Baugh and Travis
T1 sequence (P08311 21-255): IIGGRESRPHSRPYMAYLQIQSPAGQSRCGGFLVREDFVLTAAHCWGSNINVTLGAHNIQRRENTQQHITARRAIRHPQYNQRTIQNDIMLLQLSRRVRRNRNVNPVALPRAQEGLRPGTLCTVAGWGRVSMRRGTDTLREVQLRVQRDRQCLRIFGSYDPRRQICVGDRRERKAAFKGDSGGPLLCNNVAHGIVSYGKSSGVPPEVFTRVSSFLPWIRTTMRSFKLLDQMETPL
Procedure: (§1) Their concentration was determined from the absorbance at 214 nm using aprotinin as a standard. Porcine trypsin was obtained from Novo Nordisk A/S, bovine chymotrypsin (TLCK treated) was obtained from Sigma Chemical Co. (St. Louis, Mo., U.S.A.). Human neutrophil cathepsin G and elastase were purified from extracts of PMNs according to the method described by Baugh and Travis, Biochemistry 15, 1976, pp. 836-843.
(§2) Peptidyl nitroanilide substrates S2251 and S2586 were obtained from Kabi (Stockholm, Sweden). S7388 and M4765 were obtained from Sigma Chemical Co.
(§3) Serine proteinases were incubated with various concentrations of the variants for 30 minutes. Substrate was then added and residual proteinase activity was measured at 405 nm.

[3] = biological target: T2, bovine chymotrypsin (TLCK treated) (Bos taurus, UniProt P00766); assay: Inhibition of chymotrypsin by HKIB9 variants; type: biochemical; conditions: at 1 μM
T2 construct: purchased Sigma Chemical Co. (St. Louis, Mo., U.S.A.)
Procedure: as §1, §2, §3

[4] = biological target: T3, Porcine trypsin (Sus scrofa, UniProt P00761); assay: Inhibition of trypsin by HKIB9 variants; type: biochemical; conditions: at 1 μM
T3 construct: purchased Novo Nordisk A/S
Procedure: as §1, §2, §3

[5] = biological target: T4, granulocyte elastase (Homo sapiens, UniProt P08246); conditions: cited from earlier work
T4 sequence (P08246 30-267): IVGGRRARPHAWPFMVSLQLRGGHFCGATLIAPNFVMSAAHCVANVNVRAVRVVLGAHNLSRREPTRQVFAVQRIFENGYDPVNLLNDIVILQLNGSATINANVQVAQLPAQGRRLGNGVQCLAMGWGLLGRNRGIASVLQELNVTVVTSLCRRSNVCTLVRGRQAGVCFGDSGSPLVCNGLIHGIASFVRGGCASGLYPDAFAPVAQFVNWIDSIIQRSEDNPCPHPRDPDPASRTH

[6] = biological target: plasmakallikrein (Homo sapiens, UniProt P03952); conditions: cited from earlier work
[7] = high doses, including cardiopulmonary bypass operations; cited from earlier work
[8] = system: collagenase; conditions: cited from earlier work
[9] = biological target: bovine chymotrypsin (TLCK treated) (bovine) (UniProt P00766)
[10] = biological target: Human neutrophil elastase (human, UniProt P08246); assay: enzyme inhibition: proteinase incubated with various concentrations of the variant for 30 min, residual activity on peptidyl nitroanilide substrate at 405 nm
Procedure: as §3

T3 sequence (P00761 9-231): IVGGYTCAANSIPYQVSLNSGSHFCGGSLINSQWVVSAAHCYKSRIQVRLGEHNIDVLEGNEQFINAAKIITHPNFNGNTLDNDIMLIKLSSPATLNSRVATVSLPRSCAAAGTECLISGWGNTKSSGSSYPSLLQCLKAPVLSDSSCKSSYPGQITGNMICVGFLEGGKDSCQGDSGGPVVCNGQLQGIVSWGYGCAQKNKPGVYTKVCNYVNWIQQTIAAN
Sequence of plasmakallikrein (P03952 20-638, species assumed): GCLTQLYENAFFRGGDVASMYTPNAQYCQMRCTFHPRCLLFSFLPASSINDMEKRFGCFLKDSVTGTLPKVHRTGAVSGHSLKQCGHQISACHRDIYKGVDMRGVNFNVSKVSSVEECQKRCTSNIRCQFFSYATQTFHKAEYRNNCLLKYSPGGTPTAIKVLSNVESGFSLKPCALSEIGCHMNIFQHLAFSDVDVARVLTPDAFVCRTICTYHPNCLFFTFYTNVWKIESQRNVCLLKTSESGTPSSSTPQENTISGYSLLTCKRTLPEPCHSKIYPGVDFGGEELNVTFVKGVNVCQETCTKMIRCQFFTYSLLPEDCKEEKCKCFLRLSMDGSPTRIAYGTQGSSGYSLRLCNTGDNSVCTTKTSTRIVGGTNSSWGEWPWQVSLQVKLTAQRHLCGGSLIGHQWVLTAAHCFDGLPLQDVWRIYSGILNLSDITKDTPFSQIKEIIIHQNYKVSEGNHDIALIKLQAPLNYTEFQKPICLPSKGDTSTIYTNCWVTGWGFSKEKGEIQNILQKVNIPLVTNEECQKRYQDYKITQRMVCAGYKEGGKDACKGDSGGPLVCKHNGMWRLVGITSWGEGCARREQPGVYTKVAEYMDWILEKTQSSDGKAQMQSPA

Q: For “HKI B9: novel human Kunitz-type protease inhibitor domain, SEQ ID No. 1, produced from yeast strain KFN-1830 (DLLPNVCAFPMEKGPCQTYMTRWFFNFETGECELFAYGGCGGNSNNFLRKEKCEKFCKFT)”, which net charge [1] is on record?
A: Its net charge is “zero”.

Q: With “[Q15V, T16A]-HKIB9 (DLLPNVCAFPMEKGPCVAYMTRWFFNFETGECELFAYGGCGGNSNNFLRKEKCEKFCKFT) [KFN 1930, HKIB9 Kunitz domain variant produced from yeast strain KFN-1930 (plasmid pKFN-1916)]” as the molecule, how does the “inhibition of cathepsin G” value [2] read?
A: Its value is “not to inhibit”.

Q: And the inhibition of chymotrypsin [3]?
A: The inhibition of chymotrypsin was 5%.

Q: What about the inhibition of trypsin [4] of the same molecule?
A: Its inhibition of trypsin is “not to inhibit”.

Q: Which “inhibition of cathepsin G” value [2] does the source give for “[Q15V, T16G]-HKIB9 (DLLPNVCAFPMEKGPCVGYMTRWFFNFETGECELFAYGGCGGNSNNFLRKEKCEKFCKFT) [KFN 1902, HKIB9 Kunitz domain variant produced from yeast strain KFN-1902 (plasmid pKFN-1892)]” here?
A: The value was “not to inhibit”.

Q: And the inhibition of chymotrypsin [3]?
A: Its inhibition of chymotrypsin is 5%.

Q: And the inhibition of trypsin [4]?
A: The inhibition of trypsin was “not to inhibit”.

Q: With aprotinin (1-58, Ala15) as the molecule, how does the “effect on / selectivity for granulocyte elastase” value [5] read?
A: Its value is “weak effect”.

Q: For aprotinin (3-58, Arg15, Ala17, Ser42), which plasmakallikrein inhibitory effect [6] is on record?
A: The plasmakallikrein inhibitory effect was “excellent”.

Q: Which results are given for aprotinin [reference compound]?
A: net charge [1]: strongly positive; blood loss in connection with cardiac surgery [7]: significantly reduces blood loss

Q: Which “effect on / selectivity for granulocyte elastase” value [5] does the source give for aprotinin(1-58, Val15) here?
A: Its value is “relatively high selectivity”.

Q: And the effect on collagenase [8]?
A: Its effect on collagenase is “inhibitory effect”.

B1: [Q15V, T16G]-HKIB9 (other)
chain: DLLPNVCAFPMEKGPCVGYMTRWFFNFETGECELFAYGGCGGNSNNFLRKEKCEKFCKFT
modifications: ends and bridges not checked; cysteine pairing not given here
Q: For B1, which residual proteinase activity measured at 405 nm [9] is on record?
A: Its residual proteinase activity measured at 405 nm is 5%.

Q: And the Ki [10]?
A: The Ki was 140 nM.

B2: [Q15V, T16A]-HKIB9 (other)
chain: B1 chain with G18A
modifications: ends and bridges not checked; cysteine pairing not given here
Q: For B2, which residual proteinase activity measured at 405 nm [9] is on record?
A: Its residual proteinase activity measured at 405 nm is 5%.

Q: And the Ki [10]?
A: Its Ki is 64 nM.
